Experimental data published in patent US5635601, “Beta-8 integrin subunit antibodies” (Genentech, Inc., dated 1997).

Columns and labels:
alpha-6 integrin subunit = biological target: T1, alpha-6 integrin subunit (human, UniProt P23229); experiment: co-immunoprecipitation from surface-labelled beta-8-transfected 293 cells with monoclonal antibody GoH3
T1 sequence 1: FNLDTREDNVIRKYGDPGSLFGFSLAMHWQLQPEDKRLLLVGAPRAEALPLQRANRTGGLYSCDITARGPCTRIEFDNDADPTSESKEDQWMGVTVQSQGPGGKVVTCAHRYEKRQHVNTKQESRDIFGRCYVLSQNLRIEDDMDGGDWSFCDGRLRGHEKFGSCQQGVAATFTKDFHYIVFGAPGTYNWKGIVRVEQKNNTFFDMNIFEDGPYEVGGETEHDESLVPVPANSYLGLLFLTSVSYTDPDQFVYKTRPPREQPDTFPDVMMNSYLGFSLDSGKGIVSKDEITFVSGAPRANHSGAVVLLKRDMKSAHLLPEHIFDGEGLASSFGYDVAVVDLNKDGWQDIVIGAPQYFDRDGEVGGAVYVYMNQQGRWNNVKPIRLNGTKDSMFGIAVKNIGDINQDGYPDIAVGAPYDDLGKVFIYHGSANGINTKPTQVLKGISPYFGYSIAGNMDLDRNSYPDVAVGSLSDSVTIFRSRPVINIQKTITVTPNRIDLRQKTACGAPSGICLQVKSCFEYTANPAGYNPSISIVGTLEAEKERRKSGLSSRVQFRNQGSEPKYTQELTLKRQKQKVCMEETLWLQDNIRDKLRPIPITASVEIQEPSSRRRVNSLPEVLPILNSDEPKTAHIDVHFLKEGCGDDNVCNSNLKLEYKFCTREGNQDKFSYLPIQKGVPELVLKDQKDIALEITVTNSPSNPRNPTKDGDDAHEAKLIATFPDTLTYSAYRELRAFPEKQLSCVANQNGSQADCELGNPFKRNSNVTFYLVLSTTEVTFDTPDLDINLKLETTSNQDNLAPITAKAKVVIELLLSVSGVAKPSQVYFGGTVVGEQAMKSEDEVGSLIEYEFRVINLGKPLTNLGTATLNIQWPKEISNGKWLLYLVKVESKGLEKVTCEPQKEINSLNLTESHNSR
T1 sequence 2: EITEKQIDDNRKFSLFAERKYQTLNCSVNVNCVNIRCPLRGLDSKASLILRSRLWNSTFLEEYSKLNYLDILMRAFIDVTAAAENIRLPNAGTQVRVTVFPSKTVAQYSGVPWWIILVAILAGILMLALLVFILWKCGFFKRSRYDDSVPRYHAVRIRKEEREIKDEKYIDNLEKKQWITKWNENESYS
Description: (§1) For the immunoprecipitation, four hundred microliters of the labelled cell extract was incubated with 1/100 volume of antibody (ascites, culture supernatant or antiserum) at 4° C. overnight, and immunoprecipitations were carried out using Protein G Sepharose™ 4FF (Pharmacia) after first preclearing with SEPHAROSE™ CL-4B (Pharmacia). Protein G SEPHAROSE™ beads were washed three times with 0.05% Tween 20, 20mM Tris pH 8, 120 mM NaCl, 2 mM CaCl_2. Proteins precipitated from the labelled cell extracts were solubilized by heating in sample buffer and analyzed by separation on a 7.5% SDS-polyacrylamide gel followed by autoradiography.
(§2) These cells endogenously express various alpha integrin subunits, including alpha-v. The beta-8 integrin transfected cell proteins were prepared for immunoprecipitation as described in Example 4.
(§3) Monoclonal antibodies against several different alpha integrin subunits were used in the immunoprecipitations in order to identify with which alpha subunit the beta-8 integrin formed a complex. […]

alpha-3 integrin subunit = biological target: T2, alpha-3 integrin subunit (human, UniProt P26006); experiment: co-immunoprecipitation from surface-labelled beta-8-transfected 293 cells with monoclonal antibody P1B5
T2 sequence 1: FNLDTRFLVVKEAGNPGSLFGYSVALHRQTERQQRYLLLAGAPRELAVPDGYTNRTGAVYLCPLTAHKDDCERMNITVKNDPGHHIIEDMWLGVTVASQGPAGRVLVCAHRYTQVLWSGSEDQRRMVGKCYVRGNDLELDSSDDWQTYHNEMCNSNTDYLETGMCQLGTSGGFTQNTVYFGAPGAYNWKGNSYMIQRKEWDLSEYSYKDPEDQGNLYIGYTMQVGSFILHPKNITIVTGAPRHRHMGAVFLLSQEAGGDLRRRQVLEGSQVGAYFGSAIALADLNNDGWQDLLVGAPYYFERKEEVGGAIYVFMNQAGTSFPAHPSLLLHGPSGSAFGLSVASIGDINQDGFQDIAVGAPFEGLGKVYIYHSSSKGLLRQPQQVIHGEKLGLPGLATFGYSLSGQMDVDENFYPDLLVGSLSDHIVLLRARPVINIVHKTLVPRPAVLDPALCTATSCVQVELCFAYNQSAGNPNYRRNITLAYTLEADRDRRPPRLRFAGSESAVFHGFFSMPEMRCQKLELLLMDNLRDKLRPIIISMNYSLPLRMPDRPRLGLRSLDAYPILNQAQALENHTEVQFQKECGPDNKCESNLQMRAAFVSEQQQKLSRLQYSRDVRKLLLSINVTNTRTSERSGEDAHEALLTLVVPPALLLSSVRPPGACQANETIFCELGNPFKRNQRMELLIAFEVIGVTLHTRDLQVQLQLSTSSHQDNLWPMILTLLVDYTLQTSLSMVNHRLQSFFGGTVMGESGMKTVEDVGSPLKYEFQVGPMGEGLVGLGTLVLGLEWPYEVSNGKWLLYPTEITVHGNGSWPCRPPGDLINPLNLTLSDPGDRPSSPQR
T2 sequence 2: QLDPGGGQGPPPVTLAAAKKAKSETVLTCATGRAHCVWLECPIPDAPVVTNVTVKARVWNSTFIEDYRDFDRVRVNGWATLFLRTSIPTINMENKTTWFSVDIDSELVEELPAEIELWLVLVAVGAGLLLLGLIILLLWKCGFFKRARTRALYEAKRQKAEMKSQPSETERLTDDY
Description: as §1, §2, §3

alpha-5 integrin subunit = alpha-5 integrin subunit (human, UniProt P08648); experiment: co-immunoprecipitation from surface-labelled beta-8-transfected 293 cells with monoclonal antibody P1D6
Description: as §1, §2, §3

alpha-2 integrin subunit = alpha-2 integrin subunit (human, UniProt P17301); experiment: co-immunoprecipitation from surface-labelled beta-8-transfected 293 cells with monoclonal antibody P1H5
Description: as §1, §2, §3

alpha-1 integrin subunit = alpha-1 integrin subunit (human, UniProt P56199); experiment: co-immunoprecipitation from surface-labelled beta-8-transfected 293 cells with monoclonal antibody TS2/7
Description: as §1, §2, §3

Measured: binding result

B1: human beta-8 integrin subunit (receptor)
chain: EDNRCASSNAASCARCLALGPECGWCVQEDFISGGSRSERCDIVSNLISKGCSVDSIEYPSVHVIIPTENEINTQVTPGEVSIQLRPGAEANFMLKVHPLKKYPVDLYYLVDVSASMHNNIEKLNSVGNDLSRKMAFFSRDFRLGFGSYVDKTVSPYISIHPERIHNQCSDYNLDCMPPHGYIHVLSLTENITEFEKAVHRQKISGNIDTPEGGFDAMLQAAVCESHIGWRKEAKRLLLVMTDQTSHLALDSKLAGIVVPNDGNCHLKNNVYVKSTTMEHPSLGQLSEKLIDNNINVIFAVQGKQFHWYKDLLPLLPGTIAGEIESKAANLNNLVVEAYQKLISEVKVQVENQVQGIYFNITAICPDGSRKPGMEGCRNVTSNDEVLFNVTVTMKKCDVTGGKNYAIIKPIGFNETAKIHIHRNCSCQCEDNRGPKGKCVDETFLDSKCFQCDENKCHFDEDQFSSESCKSHKDQPVCSGRGVCVCGKCSCHKIKLGKVYGKYCEKDDFSCPYHHGNLCAGHGECEAGRCQCFSGWEGDRCQCPSAAAQHCVNSKGQVCSGRGTCVCGRCECTDPRSIGRFCEHCPTCYTACKENWNCMQCLHPHNLSQAILDQCKTSCALMEQQHYVDQTSECFSSPSYLRIFFIIFIVTFLIGLLKVLIIRQVILQWNSNKIKSSSDYRVSASKKDKLILQSVCTRAVTYRREKPEEIKMDISKLNAHETFRCNF
modifications: surface labelled with 125I (lactoperoxidase)
no binding: alpha-6 integrin subunit | alpha-3 integrin subunit | alpha-5 integrin subunit | alpha-2 integrin subunit | alpha-1 integrin subunit
